Experimental findings from patent US20240109973A1 (Memorial Sloan Kettering, published 2024) are described below.

In one assay the target is T1, human CD40-Fc (human, UniProt P25942 21-192).
T1 construct: range 21-192; also called dimeric CD40-Fc; not shown: human Fc fragment fused to the carboxy-terminus
Nature of the assay: BLI, Octet Red96e; avidity between bivalent IgG and dimeric CD40-Fc. As to the method:
(§1) Antibody TDI-Y-003 produced in stable CHO pools was tested in a series of binding and functional assays in vitro as well as an in vivo study in a disease-relevant animal model. Affinity to human CD40 was measured by BLI using an Octet Red96e. […] The slower off-rate seen for this interaction is likely a result of the avidity between the bivalent TDI-Y-003 IgG and the dimeric CD40-Fc.
For orientation: BLI is a label-free optical method that tracks binding on a fibre tip over time.

For assay [1], the target named is T2, recombinant human CD40 (residues 21-192) fused to a 6×His-tag at the carboxy-terminus (human, UniProt P25942 21-192).
T2 construct: range 21-192; also called Human CD40-His; soluble, monomeric human CD40-His
Nature of the assay: BLI, Octet Red96e. As to the method: as §1

For assay [2], the target named is T3, human CD40 on cells (human, UniProt P25942 21-277). Nature of the assay: cell-based or functional assay.
The target in assay [3] is T3, human CD40 on cells. Nature of the assay: flow cytometry, primary human dendritic cells (endogenous CD40). As to the method: (§2) To assess the binding of TDI-Y-003 to cell surface-bound CD40, HEK293 overexpressing CD40 as well as Raji cells (B-lymphocytes) and primary human dendritic cells, which express endogenous CD40, were used. TDI-Y-003 bound HEK293-CD40 and Raji cells with EC₅₀ values in the sub-nanomolar range at 0.44 and 0.77 nM, respectively (Table 5).
A general note: In flow cytometry, cells or beads pass a laser one at a time.

Assay [4] deals with T3, human CD40 on cells. Nature of the assay: flow cytometry, Raji cells (endogenous CD40). As to the method:
as §2

The next assay concerns the target T4, Cyno CD40-His (cynomolgus monkey, UniProt G7PG38 21-192).
T4 construct: also called monomeric cynomolgus monkey CD40; not shown: His tag
Nature of the assay: BLI, Octet Red96e. As to the method:
(§3) Affinity to cynomolgus monkey and mouse CD40 was measured by BLI using an Octet Red96e.

The next assay addresses T5, Mouse CD40-His (mouse, UniProt P27512 24-192, limits assumed).
T5 construct: also called monomeric mouse CD40; not shown: His tag
T5 sequence (looked up): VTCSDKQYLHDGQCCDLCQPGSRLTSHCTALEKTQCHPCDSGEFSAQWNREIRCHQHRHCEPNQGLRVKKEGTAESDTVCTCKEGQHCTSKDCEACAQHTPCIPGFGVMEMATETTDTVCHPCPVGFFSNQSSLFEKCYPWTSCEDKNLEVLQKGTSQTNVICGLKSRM
Nature of the assay: BLI, Octet Red96e. As to the method:
as §3

Assay [5] has as its target T3, human CD40 on cells. Nature of the assay: flow cytometry, HEK293 cells overexpressing CD40. The method, then: as §2
The target of assay [6] is T3, human CD40 on cells. Nature of the assay: cell-based or functional assay. The source holds these as a separate data set.
In assay [7] the target is T3, human CD40 on cells. Nature of the assay: flow cytometry competition on HEK293 cells stably expressing CD40; competitor HA-tagged CD40 ligand detected with PE anti-HA. As to the method: FIG. 4. Competitive binding of TDI-Y-003 with CD40 ligand to CD40 stably expressed on HEK293 cells. HEK293 cells stably expressing CD40 were co-incubated with either TDI-Y-003 or isotype control antibody and HA-tagged CD40 ligand. CD40 ligand binding was assessed by flow cytometry with a PE labeled anti-HA antibody. Results are normalized to secondary antibody only controls (MFI ratio).
Competitive binding of TDI-Y-003 with CD40L for binding to CD40 was assessed using HEK293 cells stably expressing CD40. Cells were co-incubated with HA tagged CD40 ligand and TDI-Y-003 or isotype control at the indicated concentrations and analyzed for CD40 ligand binding by flow cytometry (FIG. 4).

Assay [8] concerns the target T3, human CD40 on cells. Nature of the assay: cell-based or functional assay. The source holds these as a separate data set.
The target in assay [9] is T2, recombinant human CD40 (residues …). Nature of the assay: BLI, soluble monomeric human CD40-His. As to the method:
Dissociation constants (KD), on-rates (kon) and off-rates (koff) for the 10F12 chimeric mAb were determined by BLI using soluble, monomeric human CD40-His (Table 1).

T2 sequence (P25942 other isoform, or with tags, fused parts or gaps limits assumed): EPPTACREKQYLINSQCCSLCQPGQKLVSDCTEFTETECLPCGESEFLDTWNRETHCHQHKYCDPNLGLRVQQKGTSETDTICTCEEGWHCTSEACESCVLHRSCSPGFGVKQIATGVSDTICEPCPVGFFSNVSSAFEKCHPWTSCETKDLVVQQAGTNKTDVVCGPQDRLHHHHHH
T3 sequence (P25942 21-277): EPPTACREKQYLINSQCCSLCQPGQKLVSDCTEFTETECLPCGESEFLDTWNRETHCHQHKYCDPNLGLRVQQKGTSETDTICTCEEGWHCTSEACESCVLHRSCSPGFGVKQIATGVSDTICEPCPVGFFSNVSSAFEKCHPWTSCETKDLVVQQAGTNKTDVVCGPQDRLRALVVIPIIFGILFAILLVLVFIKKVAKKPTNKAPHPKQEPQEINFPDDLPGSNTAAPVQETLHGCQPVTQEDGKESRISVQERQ
T1 sequence (P25942 21-192): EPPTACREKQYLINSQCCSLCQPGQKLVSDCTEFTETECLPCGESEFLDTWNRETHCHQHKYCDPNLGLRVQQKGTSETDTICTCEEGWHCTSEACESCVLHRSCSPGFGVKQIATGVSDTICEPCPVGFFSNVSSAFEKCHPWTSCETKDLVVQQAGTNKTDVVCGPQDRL

B1: TDI-Y-003 (antibody, human IgG2, kappa, V domains shown)
VH: QVQLQESGPGLVKPSETLSLTCTVSGFSLTTYGLHWIRQPPGKGLEWIGVIWRGGNTDYNPSLKSRVTISKDTSKNQVSLKLSSVTAADTAVYYCAKNSYYGQGGHAMDYWGQGTLVTVSS
VL: DIVMTQSPDSLAVSLGERATINCKSSQSLLHSFNQKNYLAWYQQKPGQPPKLLIYFTSTRESGVPDRFSGSGSGTDFTLTISSLQAEDVAVYYCQQHYTTPFTFGQGTKLEIKR
notes: also called Hu10F12 (N103Q); hu10F12 (N103Q)
In general, koff refers to a measure of how fast the partners let go of each other. Broadly, the kon is a measure of how fast the partners come together. The EC50 is the concentration at which the effect is half-maximal. A lower EC50 goes with a more potent agent. As a reminder, the IC50 is the concentration that inhibits the measured activity by half. A higher IC50 goes with weaker potency. In the assay with human CD40-Fc, B1 had a Kd of 1.2 nM, a koff of 0.0013 s⁻¹ and a kon of 1e+06 M⁻¹ s⁻¹. Moreover, in assay [1], the Kd is 40 nM, the koff is 0.048 s⁻¹ and the association rate constant (kon) was 1.2e+06 M⁻¹ s⁻¹. In addition, in the assay with human CD40 on cells [2], the “EC50 in DC activation assay, marker CD80” value amounted to 2 nM; the “EC50 in DC activation assay, marker CD86” value is 5.5 nM; the “EC50 in DC activation assay, marker HLA-ABC” value was determined as 2.5 nM; the “EC50 in DC activation assay, marker HLA-DR” value was found to be 1.7 nM. This molecule also registered a 50% effective concentration (EC50) with human CD40 on cells [3] of 3.85 nM. In the assay with human CD40 on cells [4], this molecule showed an EC50 of 0.77 nM. Besides, in the assay with Cyno CD40-His, the Kd is 48 nM, the koff worked out at 0.0471 s⁻¹ and the kon was 977000 M⁻¹ s⁻¹. For the same molecule, the binding result with Mouse CD40-His was “no binding (tested: 1.7 µM)”. The EC50 with human CD40 on cells [5] was 0.44 nM. For the same molecule, the “EC50 in agonist assay (HEK293 NF-kB-luciferase reporter line stably expressing CD40)” value (shortened to “EC50 in agonist assay”) with human CD40 on cells [6] is 0.64 nM. Also, the IC50 with human CD40 on cells [7] turned out to be 1.07 nM.

B2: TDI-Y-003 Fab fragment generated by papain cleavage (Fab, V domains shown)
VH: QVQLQESGPGLVKPSETLSLTCTVSGFSLTTYGLHWIRQPPGKGLEWIGVIWRGGNTDYNPSLKSRVTISKDTSKNQVSLKLSSVTAADTAVYYCAKNSYYGQGGHAMDYWGQGTLVTVSS
VL: DIVMTQSPDSLAVSLGERATINCKSSQSLLHSFNQKNYLAWYQQKPGQPPKLLIYFTSTRESGVPDRFSGSGSGTDFTLTISSLQAEDVAVYYCQQHYTTPFTFGQGTKLEIKR
Consider B2, for which the “EC50 in agonist assay” value in the assay with human CD40 on cells [6] came out at 112 nM.

B3: TDI-Y-003 F(ab′)2 fragment generated by pepsin cleavage (other)
heavy: QVQLQESGPGLVKPSETLSLTCTVSGFSLTTYGLHWIRQPPGKGLEWIGVIWRGGNTDYNPSLKSRVTISKDTSKNQVSLKLSSVTAADTAVYYCAKNSYYGQGGHAMDYWGQGTLVTVSSASTKGPSVFPLAPCSRSTSESTAALGCLVKDYFPEPVTVSWNSGALTSGVHTFPAVLQSSGLYSLSSVVTVPSSNFGTQTYTCNVDHKPSNTKVDKTVERKCCVECPPCPAPPVAGPSVFLFPPKPKDTLMISRTPEVTCVVVDVSHEDPEVQFNWYVDGVEVHNAKTKPREEQFNSTFRVVSVLTVVHQDWLNGKEYKCKVSNKGLPAPIEKTISKTKGQPREPQVYTLPPSREEMTKNQVSLTCLVKGFYPSDIAVEWESNGQPENNYKTTPPMLDSDGSFFLYSKLTVDKSRWQQGNVFSCSVMHEALHNHYTQKSLSLSPG
light: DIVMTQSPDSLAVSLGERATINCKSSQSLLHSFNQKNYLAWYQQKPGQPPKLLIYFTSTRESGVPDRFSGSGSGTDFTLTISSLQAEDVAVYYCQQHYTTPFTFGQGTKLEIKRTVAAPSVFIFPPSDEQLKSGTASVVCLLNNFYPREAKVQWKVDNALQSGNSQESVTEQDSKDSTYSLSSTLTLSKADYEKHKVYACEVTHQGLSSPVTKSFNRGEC
B3: the “EC50 in agonist assay” value with human CD40 on cells [6] stood at 2.14 nM.

B4: 10F12 chimeric mAb, human IgG1 (antibody, V domains shown)
VH: QVQLKQSGPGLVQPSQSLSITCTVSGFSLTTYGLHWVRQSPGKGLEWLGVIWRGGNTDYNAAFMSRLSITKDNSKSQVFFKMNSLQADDTAIYYCAKNSYYGNGGHAMDYWGQGTSVTVSS
VL: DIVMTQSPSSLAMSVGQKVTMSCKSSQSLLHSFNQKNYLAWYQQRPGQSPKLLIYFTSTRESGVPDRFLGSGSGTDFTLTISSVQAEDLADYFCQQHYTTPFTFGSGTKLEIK
notes: Mouse variable regions fused to human constant regions of the IgG1 subclass; Expressed in HEK293 cells; also called 10-F12 (Human IgG1)
In the case of B4, in the assay with human CD40 on cells [8], the “EC50 for agonist activity (HEK293-CD40 NF-κB-Luciferase reporter system)” value (“EC50 for agonist activity” for short) amounted to 0.333 nM and the “Max Stim [% CD40L] (HEK293-CD40 NF-κB-Luciferase reporter system)” value (“Max Stim [% CD40L]” below) is 63.4 % CD40L. In addition, in assay [9], the Kd was found to be 27.1 nM, the koff came to 0.0071 s⁻¹ and the kon came out at 262000 M⁻¹ s⁻¹.

B5: 10F12 chimeric mAb, human IgG2 (antibody, V domains shown)
VH: QVQLKQSGPGLVQPSQSLSITCTVSGFSLTTYGLHWVRQSPGKGLEWLGVIWRGGNTDYNAAFMSRLSITKDNSKSQVFFKMNSLQADDTAIYYCAKNSYYGNGGHAMDYWGQGTSVTVSS
VL: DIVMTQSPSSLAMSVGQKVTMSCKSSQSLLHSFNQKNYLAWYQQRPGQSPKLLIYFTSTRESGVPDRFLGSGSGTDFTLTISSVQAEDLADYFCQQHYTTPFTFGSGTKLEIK
notes: Mouse variable regions fused to human constant regions of the IgG2 subclass; Expressed in HEK293 cells; also called 10-F12 (Human IgG2); 10-F12 hIgG2
Consider B5, for which, in the assay with human CD40 on cells [8], the “EC50 for agonist activity” value turned out to be 0.01 nM and the “Max Stim [% CD40L]” value was determined as 96.5 % CD40L. Moreover, in assay [9], the Kd came out at 26.5 nM, the koff is 0.00911 s⁻¹ and the kon turned out to be 344000 M⁻¹ s⁻¹.

B6: human CD40L (ligand, UniProt P29965 113-261, looked up)
chain: MQKGDQNPQIAAHVISEASSKTTSVLQWAEKGYYTMSNNLVTLENGKQLTVKRQGLYYIYAQVTFCSNREASSQAPFIASLCLKSPGRFERILLRAANTHSSAKPCGQQSIHLGGVFELQPGASVFVNVTDPSQVSHGTGFTSFGLLKL
As to B6, in the assay with human CD40 on cells [8], the “EC50 for agonist activity” value came to 3.58 nM and the “Max Stim [% CD40L]” value was found to be 100 % CD40L. Further, the “EC50 in agonist assay” value in the assay with human CD40 on cells [6] stood at 9.62 nM.
